Data reported in patent US20190071490A1 (BETH ISRAEL DEACONESS MEDICAL CENTER, published 2019).

T1: human α-CGRP 1-37 (WT) (human, C-terminal amide; N-terminal biotin when captured on the SA chip; 125I-labelled in the radioligand assay)
T1 construct: also called α-human
T1 peptide: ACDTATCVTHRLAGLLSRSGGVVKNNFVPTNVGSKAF

T2: rat α-CGRP (1-37) (rat, C-terminal amide; N-terminal biotin when captured on the SA chip)
T2 construct: also called rat α (1-37); α-rat
T2 peptide: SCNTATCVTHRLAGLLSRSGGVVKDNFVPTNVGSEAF


How the values were obtained:
human α-CGRP 1-37 (WT) = biological target: T1, human α-CGRP 1-37 (WT); experiment: Biacore, 37°C, Fab over CGRP on SA chip
Experimental: (§1) Biacore assay for affinity determination. […] All Biacore assays were conducted in HBS-EP running buffer (10 mM HEPES pH 7.4, 150 mM NaCl, 3 mM EDTA, 0.005% v/v polysorbate P20). CGRP surfaces were prepared by diluting the N-biotinylated CGRP to a concentration of less than 0.001 mg/mL into HBS-EP buffer and injecting it across the SA sensor chip using variable contact times. […] Samples were typically injected for 1 minute at 100 μL/min and dissociation times of at least 10 minutes were allowed. […] An entire titration series (typically generated in duplicate) was fit globally to a 1:1 Langmuir binding model using the BIAevaluation program. This returned a unique pair of association and dissociation kinetic rate constants (respectively, kₒₙ and koff) for each binding interaction, whose ratio gave the equilibrium dissociation constant (KD=koff/kₒₙ). […]

rat α-CGRP (1-37) = biological target: T2, rat α-CGRP (1-37); experiment: Biacore, 37°C, Fab over CGRP on SA chip
Experimental: as §1

Binder | Kd (human α-CGRP 1-37 (WT)) [nM] | koff (human α-CGRP 1-37 (WT)) [s⁻¹] | Kd (rat α-CGRP (1-37)) [nM] | koff (rat α-CGRP (1-37)) [s⁻¹]
G1 variant M45 Fab (Fab, V domains shown, Fab; constant domains as m1) VH: EVQLVESGGGLVQPGGSLRLSCAASGFTFSNYWISWVRQAPGKGLEWVAEIRSKSDNEATHYADAVKGRFTISRDNAKNSLYLQMNSLRAEDTAVYYCTVYFDYGLAIQNYWGQGTLVTVSS VL: EIVLTQSPATLSLSPGERATLSCKASKNVTTYVSWYQQKPGQAPRLLIYAASNRYTGIPARFSGSGSGTDFTLTISSLEPEDFAVYYCSQSYNYPYTFGQGTKLEIK | 1.85 | 0.000211 | 259 | 0.00558
G1 variant M40 Fab (Fab, V domains shown, Fab; constant domains as m1) VH: EVQLVESGGGLVQPGGSLRLSCAASGFTFSNYWISWVRQAPGKGLEWVAEIRSKSDLSATHYAEAVKGRFTISRDNAKNSLYLQMNSLRAEDTAVYYCTVYFDYGLAIQNYWGQGTLVTVSS VL: EIVLTQSPATLSLSPGERATLSCKASKNVTTYVSWYQQKPGQAPRLLIYAASNRYTGIPARFSGSGSGTDFTLTISSLEPEDFAVYYCSQSYNYPYTFGQGTKLEIK | 8 | 0.00128 | 20000 | 0.36
G1 variant M38 Fab (Fab, V domains shown, Fab; constant domains as m1) VH: EVQLVESGGGLVQPGGSLRLSCAASGFTFSNYWISWVRQAPGKGLEWVAEIRSESDASATHYAEAVKGRFTISRDNAKNSLYLQMNSLRAEDTAVYYCTVYFDYGLAIQNYWGQGTLVTVSS VL: EIVLTQSPATLSLSPGERATLSCKASKNVWTYVSWYQQKPGQAPRLLIYGASNRYLGIPARFSGSGSGTDFTLTISSLEPEDFAVYYCSQSYNYPYTFGQGTKLEIK | 1.36 | 0.000218 | 284 | 0.00511
G1 variant M41 Fab (Fab, V domains shown, Fab; constant domains as m1) VH: EVQLVESGGGLVQPGGSLRLSCAASGFTFSNYWISWVRQAPGKGLEWVAEIRSKSDNSATHYADAVKGRFTISRDNAKNSLYLQMNSLRAEDTAVYYCTVYFDYGLAIQNYWGQGTLVTVSS VL: EIVLTQSPATLSLSPGERATLSCKASKNVTTYVSWYQQKPGQAPRLLIYAASNRYTGIPARFSGSGSGTDFTLTISSLEPEDFAVYYCSQSYNYPYTFGQGTKLEIK | 1.31 | 0.00021 | 252 | 0.00453
G1 variant M48 Fab (Fab, V domains shown, Fab; constant domains as m1) VH: EVQLVESGGGLVQPGGSLRLSCAASGFTFSNYWISWVRQAPGKGLEWVAEIRSKSDNLATHYAEAVKGRFTISRDNAKNSLYLQMNSLRAEDTAVYYCTVYFDYGLAIQNYWGQGTLVTVSS VL: EIVLTQSPATLSLSPGERATLSCKASKNVTTYVSWYQQKPGQAPRLLIYAASNRYTGIPARFSGSGSGTDFTLTISSLEPEDFAVYYCSQSYNYPYTFGQGTKLEIK | 5.26 | 0.000842 | 1910 | 0.0343
G1 variant M43 Fab (Fab, V domains shown, Fab; constant domains as m1) VH: EVQLVESGGGLVQPGGSLRLSCAASGFTFSNYWISWVRQAPGKGLEWVAEIRSKSDNCATHYAEAVKGRFTISRDNAKNSLYLQMNSLRAEDTAVYYCTVYFDYGLAIQNYWGQGTLVTVSS VL: EIVLTQSPATLSLSPGERATLSCKASKNVTTYVSWYQQKPGQAPRLLIYAASNRYTGIPARFSGSGSGTDFTLTISSLEPEDFAVYYCSQSYNYPYTFGQGTKLEIK | 1.64 | 0.000263 | 252 | 0.00453
G1 variant M35 Fab (Fab, V domains shown, Fab; constant domains as m1) VH: EVQLVESGGGLVQPGGSLRLSCAASGFTFSNYWISWVRQAPGKGLEWVAEIRSKSDSSATHYAEAVKGRFTISRDNAKNSLYLQMNSLRAEDTAVYYCTVYFDYGLAIQNYWGQGTLVTVSS VL: EIVLTQSPATLSLSPGERATLSCKASKNVGTYVSWYQQKPGQAPRLLIYGASNRYLGIPARFSGSGSGTDFTLTISSLEPEDFAVYYCSQSYNYPYTFGQGTKLEIK | 2.12 | 0.000339 | 222 | 0.00399
G1 variant M34 Fab (Fab, V domains shown, Fab; constant domains as m1) VH: EVQLVESGGGLVQPGGSLRLSCAASGFTFSNYWISWVRQAPGKGLEWVAEIRSKSDNTATHYAEAVKGRFTISRDNAKNSLYLQMNSLRAEDTAVYYCTVYFDYGLAIQNYWGQGTLVTVSS VL: EIVLTQSPATLSLSPGERATLSCKASKNVGTYVSWYQQKPGQAPRLLIYGASNRYLGIPARFSGSGSGTDFTLTISSLEPEDFAVYYCSQSYNYPYTFGQGTKLEIK | 4.04 | 0.000646 | 121 | 0.00217
G1 variant M42 Fab (Fab, V domains shown, Fab; constant domains as m1) VH: EVQLVESGGGLVQPGGSLRLSCAASGFTFSNYWISWVRQAPGKGLEWVAEIRSKSDNSATFYAEAVKGRFTISRDNAKNSLYLQMNSLRAEDTAVYYCTVYFDYGLAIQNYWGQGTLVTVSS VL: EIVLTQSPATLSLSPGERATLSCKASKNVTTYVSWYQQKPGQAPRLLIYAASNRYTGIPARFSGSGSGTDFTLTISSLEPEDFAVYYCSQSYNYPYTFGQGTKLEIK | 2.61 | 0.000417 | 418 | 0.00752

Continued by falling Kd (human α-CGRP 1-37 (WT)), values first:

Kd (human α-CGRP 1-37 (WT)) [nM] | koff (human α-CGRP 1-37 (WT)) [s⁻¹] | Kd (rat α-CGRP (1-37)) [nM] | koff (rat α-CGRP (1-37)) [s⁻¹] | Binder
4.69 | 0.00075 | 512 | 0.00922 | G1 variant M33 Fab (Fab, V domains shown, Fab; constant domains as m1) VH: EVQLVESGGGLVQPGGSLRLSCAASGFTFSNYWISWVRQAPGKGLEWVAEIRSKSDNGATHYAEAVKGRFTISRDNAKNSLYLQMNSLRAEDTAVYYCTVYFDYGLAIQNYWGQGTLVTVSS VL: EIVLTQSPATLSLSPGERATLSCKASKNVGTYVSWYQQKPGQAPRLLIYGASNRYLGIPARFSGSGSGTDFTLTISSLEPEDFAVYYCSQSYNYPYTFGQGTKLEIK
3.37 | 0.000539 | 163 | 0.00294 | G1 variant M46 Fab (Fab, V domains shown, Fab; constant domains as m1) VH: EVQLVESGGGLVQPGGSLRLSCAASGFTFSNYWISWVRQAPGKGLEWVAEIRSKSDNEATFYAEAVKGRFTISRDNAKNSLYLQMNSLRAEDTAVYYCTVYFDYGLAIQNYWGQGTLVTVSS VL: EIVLTQSPATLSLSPGERATLSCKASKNVTTYVSWYQQKPGQAPRLLIYAASNRYTGIPARFSGSGSGTDFTLTISSLEPEDFAVYYCSQSYNYPYTFGQGTKLEIK
2.66 | 0.000425 | 553 | 0.00995 | G1 variant M39 Fab (Fab, V domains shown, Fab; constant domains as m1) VH: EVQLVESGGGLVQPGGSLRLSCAASGFTFSNYWISWVRQAPGKGLEWVAEIRSESDNYATHYAEAVKGRFTISRDNAKNSLYLQMNSLRAEDTAVYYCTVYFDYGLAIQNYWGQGTLVTVSS VL: EIVLTQSPATLSLSPGERATLSCKASKNVTTYVSWYQQKPGQAPRLLIYAASNRYTGIPARFSGSGSGTDFTLTISSLEPEDFAVYYCSQSYNYPYTFGQGTKLEIK
2.08 | 0.000332 | 457 | 0.00823 | G1 variant M47 Fab (Fab, V domains shown, Fab; constant domains as m1) VH: EVQLVESGGGLVQPGGSLRLSCAASGFTFSNYWISWVRQAPGKGLEWVAEIRSKSDNGATHYAEAVKGRFTISRDNAKNSLYLQMNSLRAEDTAVYYCTVYFDYGLAIQNYWGQGTLVTVSS VL: EIVLTQSPATLSLSPGERATLSCKASKNVTTYVSWYQQKPGQAPRLLIYAASNRYTGIPARFSGSGSGTDFTLTISSLEPEDFAVYYCSQSYNYPYTFGQGTKLEIK
2.05 | 0.00021 | 443 | 0.00613 | G1 variant M44 Fab (Fab, V domains shown, Fab; constant domains as m1) VH: EVQLVESGGGLVQPGGSLRLSCAASGFTFSNYWISWVRQAPGKGLEWVAEIRSKSDNEATHYAEAVKGRFTISRDNAKNSLYLQMNSLRAEDTAVYYCTVYFDYGLAIQNYWGQGTLVTVSS VL: EIVLTQSPATLSLSPGERATLSCKASKNVTTYVSWYQQKPGQAPRLLIYAASNRYTGIPARFSGSGSGTDFTLTISSLEPEDFAVYYCSQSYNYPYTFGQGTKLEIK
1.69 | 0.000271 | 164 | 0.00296 | G1 variant M32 Fab (Fab, V domains shown, Fab; constant domains as m1) VH: EVQLVESGGGLVQPGGSLRLSCAASGFTFSNYWISWVRQAPGKGLEWVAEIRSKSDHSATHYAEAVKGRFTISRDNAKNSLYLQMNSLRAEDTAVYYCTVYFDYGLAIQNYWGQGTLVTVSS VL: EIVLTQSPATLSLSPGERATLSCKASKNVGTYVSWYQQKPGQAPRLLIYGASNRYLGIPARFSGSGSGTDFTLTISSLEPEDFAVYYCSQSYNYPYTFGQGTKLEIK
1.49 | 0.000239 | 266 | 0.00479 | G1 variant M36 Fab (Fab, V domains shown, Fab; constant domains as m1) VH: EVQLVESGGGLVQPGGSLRLSCAASGFTFSNYWISWVRQAPGKGLEWVAEIRSESDASATHYAEAVKGRFTISRDNAKNSLYLQMNSLRAEDTAVYYCTVYFDYGLAIQNYWGQGTLVTVSS VL: EIVLTQSPATLSLSPGERATLSCKASKNVRTYVSWYQQKPGQAPRLLIYGASNRYLGIPARFSGSGSGTDFTLTISSLEPEDFAVYYCSQSYNYPYTFGQGTKLEIK
1.41 | 0.000226 | 80.6 | 0.00145 | G1 variant M37 Fab (Fab, V domains shown, Fab; constant domains as m1) VH: EVQLVESGGGLVQPGGSLRLSCAASGFTFSNYWISWVRQAPGKGLEWVAEIRSESDGSATHYAEAVKGRFTISRDNAKNSLYLQMNSLRAEDTAVYYCTVYFDYGLAIQNYWGQGTLVTVSS VL: EIVLTQSPATLSLSPGERATLSCKASKNVSTYVSWYQQKPGQAPRLLIYGASNRYLGIPARFSGSGSGTDFTLTISSLEPEDFAVYYCSQSYNYPYTFGQGTKLEIK
